Results reported in publication PMC5028113.

Molecular target: interferon-gamma (IFN-γ) (UniProt P01579 24-161)
Experiment: competition

Sequence of interferon-gamma (IFN-γ) (P01579 24-161): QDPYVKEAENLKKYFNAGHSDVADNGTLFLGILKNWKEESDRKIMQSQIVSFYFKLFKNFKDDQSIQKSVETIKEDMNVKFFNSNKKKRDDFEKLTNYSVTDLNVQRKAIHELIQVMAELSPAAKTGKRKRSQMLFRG

B1: IFN-γ aptamer hybridized with biotin-DNA and thiol-DNA (invertase conjugate) (mixed)
DNA 1: TGGGGTTGGTTGTGTTGGGTGTTGTGTAAAAAAAAAAAAAACTACTCATCTGTGA
DNA 2: AAAAAAAAAAAATCACAGATGAGTAGT
?: AAAAAAAAAAACAACCAACCCCA
modifications: 5' biotin on strand 2; 5' thiol on strand 3
B1: binds.
